Measured values taken from patent US12129294B2, “Methods of treatment of diseases in which IL-13 activity is detrimental using anti-IL-13 antibodies” (AbbVie Inc., priority 2016, dated 2024).
Several values for one entry are separate records, joined by “and”; a condition that tells them apart may be missing. Equal values may be shown once. Entries after “also recorded” stand apart in the source; their conditions may differ.

Tests used:
[1] = system: subjects with symptomatic eosinophilic esophagitis (EoE); experiment: Phase 2 study in EoE patients: EoE endoscopic reference score (EREF); assay type: in vivo, human; conditions: treatment with RPC4046
Procedure: (§1) Safety was monitored throughout the study. […] The study was powered for the primary endpoint.
In further analysis, the mean eosinophilic esophagitis endoscopic reference score (EREF) in subjects at week 16 was analyzed for placebo and the two treatment arms. The EREF score is an additional secondary endpoint that is evaluated based on the presence of inflammatory markers (e.g., being positive for edema, exudates and/or furrows) and/or remodeling markers (e.g., being positive for fixed rings and/or strictures).
The results of the EREF study was further inspected by analyzing composite EREF score for inflammatory markers or remodeling markers.

[2] = system: subjects with symptomatic eosinophilic esophagitis (EoE); experiment: Phase 2 study in EoE patients: dysphagia symptom composite diary score (daily symptom diary, DSD); assay type: in vivo, human; parameters: dysphagia symptom composite diary score, Mean change / dysphagia symptom composite diary score, Mean / dysphagia symptom composite diary score, Median: scale not given here; conditions: for dysphagia symptom composite diary score, Mean change / dysphagia symptom composite diary score, LSMD versus placebo: Change to Week 16
Source text: Safety was monitored throughout the study. […] The study was powered for the primary endpoint. […]

[3] = target: human type IL-13 (Homo sapiens, UniProt P35225, Q144R); experiment: Binding of the antibody to IL-13
[4] = system: subjects with symptomatic eosinophilic esophagitis (EoE); experiment: Phase 2 study in EoE patients: clinician's global assessment of disease severity; assay type: in vivo, human; conditions: for clinician's global assessment of disease severity, Mean change / clinician's global assessment of disease severity, LSMD versus placebo: Change to Week 16; for clinician's global assessment of disease severity, LSMD versus placebo: ANCOVA
Source text: as §1

[5] = system: other cytokines; experiment: Binding of the antibody to other cytokines
[6] = system: subjects with symptomatic eosinophilic esophagitis (EoE); experiment: Phase 2 study in EoE patients: EEsAI PRO score; assay type: in vivo, human; parameters: EEsAI PRO score, Mean / EEsAI PRO score, Median: scale not given here; conditions: for EEsAI PRO score, Mean change / EEsAI PRO score, LSMD versus placebo: Change to Week 16
Procedure: Additionally, a comparison of the mean EEsAI PRO scores at baseline and at week 16 between the placebo group and the treatment group was conducted.

[7] = target: IL-13 sequence variant, R110Q (Homo sapiens, UniProt P35225); experiment: Binding of the antibody to IL-13 variant
[8] = system: subjects with symptomatic eosinophilic esophagitis (EoE); experiment: Phase 2 study in EoE patients: safety, treatment-emergent adverse events (TEAE)
Procedure: A double-blind, placebo-controlled, dose-finding study was conducted at 40 canters in North America and Switzerland. Patients with EoE (n=100, aged 18-65) were randomized to 180 mg (low dose; LD) or 360 mg (high dose; HD) RPC4046 or PBO (1:1:1) in a Day 1 intravenous loading dose, followed by weekly subcutaneous doses for 15 weeks. […] Safety was monitored throughout the study.
Additionally, various safety and tolerability endpoints are also measurable. Safety and tolerability parameters are evaluated by the incidence, severity, and relationship of adverse events (AEs), serious AEs (SAEs), clinical laboratory abnormalities, changes in vital signs, physical examination abnormalities, and the presence of anti-drug antibodies.

[9] = system: subjects with symptomatic eosinophilic esophagitis (EoE); experiment: Phase 2 study in EoE patients: subject's global impression; assay type: in vivo, human; conditions: therapy arm; week 16
Source text: as §1

[10] = system: subjects with symptomatic eosinophilic esophagitis (EoE); experiment: Phase 2 study in EoE patients: mean esophageal eosinophil count in the 5 most inflamed HPF of esophageal biopsies; assay type: in vivo, human; conditions: for mean esophageal eosinophil count (EEOC Mean BL): baseline; for mean change from baseline in mean esophageal eosinophil count: baseline to week 16; for mean esophageal eosinophil count (EEOC Mean post): post treatment (week 16)
Source text: as §1
Additionally, various safety and tolerability endpoints are also measurable.
To maximize consistency, biopsies were obtained from proximal and distal esophagus (i.e., 4 biopsy fragments from each level) at screening. Additional biopsies from mid-esophagus was encouraged and effort was made to obtain subsequent biopsies from the same levels. The biopsies were blinded and read by single central pathologist. To be eligible for trial, subjects were evaluated for peak eosinophil count of ≥15/HPF, from 2 of 3 (proximal, mid-, and/or distal) levels of the esophagus at the screening endoscopy.

[11] = both low dose (180 mg) and high dose (360 mg)
[12] = 180 mg (N = 31), safety population
[13] = 360 mg (N = 34), safety population

Chain of human type IL-13 (P35225 15-146 Q144R limits assumed): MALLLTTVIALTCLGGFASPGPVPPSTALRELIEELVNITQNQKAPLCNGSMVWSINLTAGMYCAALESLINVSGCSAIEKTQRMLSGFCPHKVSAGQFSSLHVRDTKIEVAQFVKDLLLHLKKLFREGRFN
Chain of IL-13 sequence variant, R110Q (P35225 35-146, stated change not applied): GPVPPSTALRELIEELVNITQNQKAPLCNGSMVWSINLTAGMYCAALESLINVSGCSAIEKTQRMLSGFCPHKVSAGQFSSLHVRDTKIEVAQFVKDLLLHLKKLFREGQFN

B1: RPC4046: recombinant humanized, high-affinity, selective anti-IL-13 monoclonal antibody; heavy chain variable region SEQ ID NO: 2, light chain variable region SEQ ID NO: 3 (antibody, V domains shown)
VH: EVTLRESGPGLVKPTQTLTLTCTLYGFSLSTSDMGVDWIRQPPGKGLEWLAHIWWDDVKRYNPALKSRLTISKDTSKNQVVLKLTSVDPVDTATYYCARTVSSGYIYYAMDYWGQGTLVTVSS
VL: DIQMTQSPSSLSASVGDRVTISCRASQDIRNYLNWYQQKPGKAPKLLIFYTSKLHSGVPSRFSGSGSGTDYTLTISSLQPEDIATYYCQQGNTLPLTFGGGTKVEIK
EREF total score at week 16 [1]: net lowering of EREF score | dysphagia symptom composite diary score, Mean ([2]; 180 mg, ITT, Baseline): 27.63 and 27.6 | dysphagia symptom composite diary score, Median ([2]; 180 mg, ITT, Baseline): 28.5 | dysphagia symptom composite diary score, Mean change ([2]; 180 mg, ITT): −5.3 | dysphagia symptom composite diary score, LSMD versus placebo ([2]; 180 mg, ITT, ANCOVA): 0.02 | dysphagia symptom composite diary score, Mean ([2]; 180 mg, ITT, Week 16): 21.9 | dysphagia symptom composite diary score, Median ([2]; 180 mg, ITT, Week 16): 26.1 | dysphagia symptom composite diary score, Mean change ([2]; 180 mg, non-steroid-refractory pts): −10.0 | dysphagia symptom composite diary score, LSMD versus placebo ([2]; 180 mg, non-steroid-refractory): 0.93 | dysphagia symptom composite diary score, Mean change ([2]; 180 mg, steroid-refractory pts): −1.3 | dysphagia symptom composite diary score, LSMD versus placebo ([2]; 180 mg, steroid-refractory): −1.3 | dysphagia symptom composite diary score, Mean ([2]; 360 mg, ITT, Baseline): 29.03 and 29 | dysphagia symptom composite diary score, Median ([2]; 360 mg, ITT, Baseline): 27.5 | dysphagia symptom composite diary score, Mean change ([2]; 360 mg, ITT): −13.3 | dysphagia symptom composite diary score, LSMD versus placebo ([2]; 360 mg, ITT, ANCOVA): −6.50 | dysphagia symptom composite diary score, Mean ([2]; 360 mg, ITT, Week 16): 15.3 | dysphagia symptom composite diary score, Median ([2]; 360 mg, ITT, Week 16): 6.2 | dysphagia symptom composite diary score, Mean change ([2]; 360 mg, non-steroid-refractory pts): −14.0 | dysphagia symptom composite diary score, LSMD versus placebo ([2]; 360 mg, non-steroid-refractory): −3.1 | dysphagia symptom composite diary score, Mean change ([2]; 360 mg, steroid-refractory pts): −12.3 | dysphagia symptom composite diary score, LSMD versus placebo ([2]; 360 mg, steroid-refractory): −12.0 | mean dysphagia symptom composite diary score at week 16 compared to the controls [2, 11]: reduction | mean dysphagia symptom composite diary score in steroid-refractory subjects ([2]; subgroup analysis, 180 mg and 360 mg, week 16): dose-dependent reduction | benefit on dysphagia composite diary score, steroid refractory versus non-steroid-refractory subgroup ([2]; subgroup analysis, over 16 weeks): steroid refractory sub-group benefited more | binding to human type IL-13 [3]: binds to human type IL-13 | selectivity for IL-13 [3]: highly selective for IL-13 | clinician's global assessment of disease severity, Mean ([4]; 180 mg, Baseline): 6.7 | clinician's global assessment of disease severity, Median ([4]; 180 mg, Baseline): 7.0 | clinician's global assessment of disease severity, Mean change ([4]; 180 mg): −3.6 | clinician's global assessment of disease severity, LSMD versus placebo ([4]; 180 mg): −1.7 | clinician's global assessment of disease severity, Mean ([4]; 180 mg, Week 16): 2.9 | clinician's global assessment of disease severity, Median ([4]; 180 mg, Week 16): 2.0 | clinician's global assessment of disease severity, Mean ([4]; 360 mg, Baseline): 6.1 | clinician's global assessment of disease severity, Median ([4]; 360 mg, Baseline): 6.0 | clinician's global assessment of disease severity, Mean change ([4]; 360 mg): −2.9 | clinician's global assessment of disease severity, LSMD versus placebo ([4]; 360 mg): −1.3 | clinician's global assessment of disease severity, Mean ([4]; 360 mg, Week 16): 3.2 | clinician's global assessment of disease severity, Median ([4]; 360 mg, Week 16): 3.0 | clinician's global assessment of disease severity at week 16 ([4]; both the low and the high dose, week 16): achieved statistical significance | binding to other cytokines [5]: does not bind to other cytokines | mean EEsAI PRO at week 16 ([6]; 180 mg and 360 mg, week 16): dose-dependent reduction | EEsAI PRO score, Mean ([6]; 180 mg, Baseline): 58.1 | EEsAI PRO score, Median ([6]; 180 mg, Baseline): 61.0 | EEsAI PRO score, Mean change ([6]; 180 mg): −19.8 | EEsAI PRO score, LSMD versus placebo ([6]; 180 mg, ANCOVA): −4.0 | EEsAI PRO score, Mean ([6]; 180 mg, Week 16): 39.3 | EEsAI PRO score, Median ([6]; 180 mg, Week 16): 49.0 | EEsAI PRO score, LSMD versus placebo ([6]; 180 mg, non-steroid-refractory): 4.9 | EEsAI PRO score, Mean change ([6]; 180 mg, non-steroid-refractory): −20.4 | EEsAI PRO score, LSMD versus placebo ([6]; 180 mg, steroid refractory): −13.5 | EEsAI PRO score, Mean change ([6]; 180 mg, steroid refractory): −19.1 | EEsAI PRO score, Mean ([6]; 360 mg, Baseline): 56.2 | EEsAI PRO score, Median ([6]; 360 mg, Baseline): 58.0 | EEsAI PRO score, Mean change ([6]; 360 mg): −23.0 | EEsAI PRO score, LSMD versus placebo ([6]; 360 mg, ANCOVA): −7.2 | EEsAI PRO score, Mean ([6]; 360 mg, Week 16): 33.2 | EEsAI PRO score, Median ([6]; 360 mg, Week 16): 30.5 | EEsAI PRO score, LSMD versus placebo ([6]; 360 mg, non-steroid-refractory): −1.2 | EEsAI PRO score, Mean change ([6]; 360 mg, non-steroid-refractory): −25.2 | EEsAI PRO score, LSMD versus placebo ([6]; 360 mg, steroid refractory): −15.5 | EEsAI PRO score, Mean change ([6]; 360 mg, steroid refractory): −20.8 | mean EEsAI PRO score in the steroid refractory sub-group ([6]; sub-group analysis, week 16): statistically significant reduction | binding to IL-13 sequence variant, R110Q [7]: binds | Number of subjects experiencing Death related to study drug [8, 12]: 0 n | Number of subjects experiencing ≥1 TEAE [8, 12]: 20 n | Number of subjects experiencing ≥1 TEAE leading to study drug d/c [8, 12]: 1 n | Number of subjects experiencing ≥1 TEAE with fatal outcome [8, 12]: 0 n | Number of subjects experiencing ≥1 moderate or severe TEAE [8, 12]: 7 n | Number of subjects experiencing ≥1 possible, probable, or related TEAE [8, 12]: 11 n | Number of subjects experiencing ≥1 related TEAE [8, 12]: 3 n | Number of subjects experiencing ≥1 related serious TEAE [8, 12]: 0 n | Number of subjects experiencing ≥1 serious TEAE [8, 12]: 0 n | Number of subjects experiencing ≥1 severe TEAE [8, 12]: 2 n | Subjects experiencing ≥1 TEAE [8, 12]: (64.5) % | Subjects experiencing ≥1 TEAE leading to study drug d/c [8, 12]: (3.2) % | Subjects experiencing ≥1 moderate or severe TEAE [8, 12]: (22.6) % | Subjects experiencing ≥1 possible, probable, or related TEAE [8, 12]: (35.5) % | Subjects experiencing ≥1 related TEAE [8, 12]: (9.7) % | Subjects experiencing ≥1 severe TEAE [8, 12]: (6.5) % | safety and tolerability ([8]; 180 mg and 360 mg, 16-week treatment): well-tolerated with a favorable safety profile; also recorded: generally safe and well-tolerated | Number of subjects experiencing Death related to study drug [8, 13]: 0 n | Number of subjects experiencing ≥1 TEAE [8, 13]: 29 n | Number of subjects experiencing ≥1 TEAE leading to study drug d/c [8, 13]: 3 n | Number of subjects experiencing ≥1 TEAE with fatal outcome [8, 13]: 0 n | Number of subjects experiencing ≥1 moderate or severe TEAE [8, 13]: 11 n | Number of subjects experiencing ≥1 possible, probable, or related TEAE [8, 13]: 18 n | Number of subjects experiencing ≥1 related TEAE [8, 13]: 5 n | Number of subjects experiencing ≥1 related serious TEAE [8, 13]: 0 n | Number of subjects experiencing ≥1 serious TEAE [8, 13]: 1 n | Number of subjects experiencing ≥1 severe TEAE [8, 13]: 2 n | Subjects experiencing ≥1 TEAE [8, 13]: (85.3) % | Subjects experiencing ≥1 TEAE leading to study drug d/c [8, 13]: (8.8) % | Subjects experiencing ≥1 moderate or severe TEAE [8, 13]: (32.4) % | Subjects experiencing ≥1 possible, probable, or related TEAE [8, 13]: (52.9) % | Subjects experiencing ≥1 related TEAE [8, 13]: (14.7) % | Subjects experiencing ≥1 serious TEAE [8, 13]: (2.9) % | Subjects experiencing ≥1 severe TEAE [8, 13]: (5.9) % | most-frequently reported adverse events ([8]; phase 2 study): headache, URI, arthralgia, nasopharyngitis, sinusitis, abdominal pain and oropharyngeal pain | infusional hypersensitivity events ([8]; treatment groups): no reported instances of infusional hypersensitivity events | subjects responding as feeling a lot better or a little better compared to placebo [9]: larger number of subjects | mean esophageal eosinophil count (EEOC Mean BL) ([10]; 180 mg (LD)): 116.6 cells/hpf and 116.7 cells/hpf | mean change from baseline in mean esophageal eosinophil count ([10]; 180 mg (LD)): −94.8 cells/hpf | mean esophageal eosinophil count (EEOC Mean post) ([10]; 180 mg): 24.8 cells/hpf | mean esophageal eosinophil count (EEOC Mean BL) ([10]; 360 mg (HD)): 122.6 cells/hpf | mean change from baseline in mean esophageal eosinophil count ([10]; 360 mg (HD)): −99.9 cells/hpf | mean esophageal eosinophil count (EEOC Mean post) ([10]; 360 mg): 25.5 cells/hpf | mean esophageal eosinophil count at week 16 compared to the controls [10, 11]: statistically significant reduction
